From article PMC5638942

How the values were obtained:
[1] = target: PTH1 receptor (PTHR1), recombinant, on transfected HEK 293a cells (UniProt Q03431)
[2] = target: PTHR1 (Homo sapiens) (UniProt Q03431); assay: radioligand competition; conditions: cited from earlier work

Chain of PTH (P01270 32-115): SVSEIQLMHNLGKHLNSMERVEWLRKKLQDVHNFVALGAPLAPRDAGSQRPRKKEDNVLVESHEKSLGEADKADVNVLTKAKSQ

potency in cyclic AMP generation (10 min) in HEK 293a cells expressing PTHR1, against PTH(1-34) [1] [fold]	Substance	Ki [2] [nM]
5	PTH-HRP (prepro-PTH(1-84) fused to the N-terminus of horseradish peroxidase, N175S mutant) (from UniProt P01270 32-115) (ligand)	
	PTH (from UniProt P01270)	2
	PTH1-34 1-34 (from UniProt P01270)	4
